Source: publication PMC2897128 (Nature, 2010)

How the values were obtained:
SEC = target: the molecule itself; assay: SEC
[1] = target: T1, Sulfolobus solfataricus SRP54 (SRP54 moiety of SRP54*) (Sulfolobus solfataricus, UniProt Q97ZE7 2-432); assay: crystal structure
T1 sequence (looked up): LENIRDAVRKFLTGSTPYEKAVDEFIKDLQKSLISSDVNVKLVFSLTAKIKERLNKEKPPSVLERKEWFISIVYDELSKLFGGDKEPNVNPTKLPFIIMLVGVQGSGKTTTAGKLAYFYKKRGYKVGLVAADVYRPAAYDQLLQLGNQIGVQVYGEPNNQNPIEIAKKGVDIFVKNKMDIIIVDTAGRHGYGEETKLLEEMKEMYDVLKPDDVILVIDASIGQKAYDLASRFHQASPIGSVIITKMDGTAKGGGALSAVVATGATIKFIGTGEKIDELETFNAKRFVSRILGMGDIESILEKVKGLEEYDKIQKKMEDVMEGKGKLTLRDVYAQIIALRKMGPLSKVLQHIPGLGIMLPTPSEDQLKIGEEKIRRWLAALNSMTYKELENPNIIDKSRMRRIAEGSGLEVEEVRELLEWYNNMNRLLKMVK

B1: SRP54-signal sequence fusion protein (SRP54*) with an 11mer linker (other, Sulfolobus solfataricus | S. cerevisiae)
chain: LENIRDAVRKFLTGSTPYEKAVDEFIKDLQKSLISSDVNVKLVFSLTAKIKERLNKEKPPSVLERKEWFISIVYDELSKLFGGDKEPNVNPTKLPFIIMLVGVQGSGKTTTAGKLAYFYKKRGYKVGLVAADVYRPAAYDQLLQLGNQIGVQVYGEPNNQNPIEIAKKGVDIFVKNKMDIIIVDTAGRHGYGEETKLLEEMKEMYDVLKPDDVILVIDASIGQKAYDLASRFHQASPIGSVIITKMDGTAKGGGALSAVVATGATIKFIGTGEKIDELETFNAKRFVSRILGMGDIESILEKVKGLEEYDKIQKKMEDVMEGKGKLTLRDVYAQIIALRKMGPLSKVLQHIPGLGIMLPTPSEDQLKIGEEKIRRWLAALNSMTYKELENPNIIDKSRMRRIAEGSGLEVEEVRELLEWYNNMNRLLKMVKARSGSGSGSGSKLIRVGIILVLLIWGTVLLLKSIPHH
With B1 the “stoichiometry N” value (SEC) was ≥ 2.

KLIRVGIILVLLIWGTVLLLKSIPHH [signal anchor sequence from S. cerevisiae dipeptidyl-aminopeptidase B (DPAP-B)]: binds [1].
